# According to patent US20090304580A1 (published 2009):
# Positions of bridges follow the written chain, without caps; N, C: chain ends. No end group written: not given here.
# B1: humanized PAM4 antibody (hPAM4 IgG) (antibody, V domains shown)
# VH: QVQLQQSGAEVKKPGASVKVSCEASGYTFPSYVLHWVKQAPGQGLEWIGYINPYNDGTQYNEKFKGKATLTRDTSINTAYMELSRLRSDDTAVYYCARGFGGSYGFAYWGQGTLVTVSS
# VL: DIQLTQSPSSLSASVGDRVTMTCSASSSVSSSYLYWYQQKPGKAPKLWIYSTSNLASGVPARFSGSGSGTDFTLTISSLQPEDSASYFCHQWNRYPYTFGGGTRLEIKR
# Legend:
# [1] = molecular target: T1, PAM4 antigen (human pancreatic cancer mucin, CaPan1) (human); test: ELISA on target mucin antigen (FIG. 9)
# T1 construct: Mucin preparation or cell extract from human pancreatic cancer (CaPan1 xenografts); coated on plates or captured by PAM4 in the immunoassays; also called CaPan1 Ag; CaPan1 antigens
# [2] = molecular target: T2, cyclic phage-displayed peptide ACPEWWGTTC (disulfide 2-10); test: screen of phage-displayed peptides (cyclic library) after panning against hPAM4
# T2 construct: also called cyclic peptide
# T2 peptide: ACPEWWGTTC
binder,measurement,setting,value
B1,EC50,[1],1.31 nM
same,binding result,[2],binds
